Target: human lymphotoxin (TNFβ) (human) (UniProt P01374)
Assay: cell-based or functional assay

Chain of human lymphotoxin (TNFβ) (human) (P01374 35-205 limits assumed): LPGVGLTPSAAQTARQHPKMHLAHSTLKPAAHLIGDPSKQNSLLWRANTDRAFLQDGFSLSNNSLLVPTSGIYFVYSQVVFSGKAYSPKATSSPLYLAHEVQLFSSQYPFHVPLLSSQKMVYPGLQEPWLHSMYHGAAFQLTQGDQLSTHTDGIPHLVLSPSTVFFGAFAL

## p55-sf2 (p55 TNF receptor / IgG1 heavy chain single fusion with truncated light chain JCK) (from UniProt P19438) (Fc fusion)
  amount needed for the same inhibition of TNFβ cytotoxicity, against p75P-sf2 (fold (against p75P-sf2)): 3

Source: US20030204066A1
